How the values were obtained:
Assay in all cases: SPR
[1] = target: Ku70-Ku80 heterodimer (Ku) (UniProt P12956+P13010)
[2] = target: Ku70-Ku80 heterodimer (Ku);PAXX V199A/F201A V199A;F201A (human?;human) (UniProt P12956+P13010+Q9BUH6)
[3] = target: Ku70-Ku80 heterodimer (Ku);PAXX WT (PAXX1-204, C9orf142) (human?;human) (UniProt P12956+P13010+Q9BUH6)
Chain of Ku70-Ku80 heterodimer (Ku);PAXX WT (PAXX1-204, C9orf142) (human?;human) (P12956 whole entry, chain 1 of 3): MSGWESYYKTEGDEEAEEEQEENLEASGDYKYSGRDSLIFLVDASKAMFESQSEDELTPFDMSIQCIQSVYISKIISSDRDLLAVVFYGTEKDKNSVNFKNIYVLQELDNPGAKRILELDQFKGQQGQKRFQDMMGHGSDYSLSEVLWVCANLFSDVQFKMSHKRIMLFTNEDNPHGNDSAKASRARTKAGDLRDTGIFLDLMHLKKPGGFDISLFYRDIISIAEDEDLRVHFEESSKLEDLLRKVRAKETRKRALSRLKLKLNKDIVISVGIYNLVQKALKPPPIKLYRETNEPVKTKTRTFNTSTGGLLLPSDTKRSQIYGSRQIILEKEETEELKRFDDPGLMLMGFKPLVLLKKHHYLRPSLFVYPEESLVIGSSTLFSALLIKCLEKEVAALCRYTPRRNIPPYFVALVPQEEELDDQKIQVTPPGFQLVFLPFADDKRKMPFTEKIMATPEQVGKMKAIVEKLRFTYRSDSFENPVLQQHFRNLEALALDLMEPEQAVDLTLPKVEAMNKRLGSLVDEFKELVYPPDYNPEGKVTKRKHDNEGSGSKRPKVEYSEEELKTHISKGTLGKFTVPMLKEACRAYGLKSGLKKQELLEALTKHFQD
Chain of Ku70-Ku80 heterodimer (Ku);PAXX WT (PAXX1-204, C9orf142) (human?;human) (P13010 whole entry, chain 2 of 3): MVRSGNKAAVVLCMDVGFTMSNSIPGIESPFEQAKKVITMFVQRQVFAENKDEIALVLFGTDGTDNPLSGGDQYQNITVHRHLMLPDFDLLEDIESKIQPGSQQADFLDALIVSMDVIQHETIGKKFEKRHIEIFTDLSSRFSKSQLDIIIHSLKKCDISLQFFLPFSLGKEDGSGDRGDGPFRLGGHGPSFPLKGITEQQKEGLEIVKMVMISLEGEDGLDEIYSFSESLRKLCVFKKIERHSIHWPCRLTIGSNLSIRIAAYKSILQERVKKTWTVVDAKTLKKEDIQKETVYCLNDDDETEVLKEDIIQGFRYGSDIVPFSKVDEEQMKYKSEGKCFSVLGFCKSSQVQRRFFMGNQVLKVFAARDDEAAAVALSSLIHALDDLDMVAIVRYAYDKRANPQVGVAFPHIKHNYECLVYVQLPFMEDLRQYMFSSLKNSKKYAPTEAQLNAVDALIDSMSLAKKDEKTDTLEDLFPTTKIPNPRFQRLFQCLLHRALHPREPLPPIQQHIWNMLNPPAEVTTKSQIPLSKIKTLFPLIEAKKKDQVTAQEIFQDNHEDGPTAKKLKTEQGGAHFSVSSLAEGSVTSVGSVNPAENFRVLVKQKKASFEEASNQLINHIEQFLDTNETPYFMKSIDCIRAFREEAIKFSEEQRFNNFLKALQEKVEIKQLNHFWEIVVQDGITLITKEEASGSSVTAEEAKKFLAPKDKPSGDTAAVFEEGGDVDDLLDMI
Chain of Ku70-Ku80 heterodimer (Ku);PAXX WT (PAXX1-204, C9orf142) (human?;human) (Q9BUH6 whole entry, chain 3 of 3): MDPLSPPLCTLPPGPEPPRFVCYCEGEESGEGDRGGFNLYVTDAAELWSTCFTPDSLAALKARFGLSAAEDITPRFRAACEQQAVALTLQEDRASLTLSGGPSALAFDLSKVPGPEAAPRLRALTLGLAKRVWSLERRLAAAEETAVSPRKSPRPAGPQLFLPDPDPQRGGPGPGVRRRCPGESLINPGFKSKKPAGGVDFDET

Chain of Ku70-Ku80 heterodimer (Ku) (P12956 whole entry, chain 1 of 2): as the sequence (P12956 whole entry, chain 1 of 3) above
Chain of Ku70-Ku80 heterodimer (Ku) (P13010 whole entry, chain 2 of 2): as the sequence (P13010 whole entry, chain 2 of 3) above
Chain of Ku70-Ku80 heterodimer (Ku);PAXX V199A/F201A V199A;F201A (human?;human) (P12956 whole entry, chain 1 of 3): as the sequence (P12956 whole entry, chain 1 of 3) above
Chain of Ku70-Ku80 heterodimer (Ku);PAXX V199A/F201A V199A;F201A (human?;human) (P13010 whole entry, chain 2 of 3): as the sequence (P13010 whole entry, chain 2 of 3) above
Chain of Ku70-Ku80 heterodimer (Ku);PAXX V199A/F201A V199A;F201A (human?;human) (Q9BUH6 whole entry V199A/F201A, chain 3 of 3): as the sequence (Q9BUH6 whole entry, chain 3 of 3) above, with V199A, F201A counted along it

ATATATCCATGGCTGCCTCACAAACTTCACAAACTGTTGCATCTCACGTTCCTTTTGCAGATTTGTGTTCAACTTTAGAACGAATACAGAAAAGTAAAGGACGTGCA (double strand) [107-bp biotinylated LIG4 PCR fragment]
binding [1]: binds | binding [2]: no binding | binding [3]: binds

Reference: paper PMC4338599
